The target in assay [1] is human TrkB on CHO cells (hTrkB-CHO cells) (human) (UniProt Q16620). The assay is described as follows: cell-based or functional assay.
For assay [2], the target named is T1, TrkB full length (FL, WT) conjugated with GFP, expressed in 293T cells (UniProt Q16620 32-822).
T1 construct: whole, on cells; The protein stood in cell lysate, not on whole cells; the numbering of the truncation (366-822) fits human TrkB; not shown: GFP
Put plainly: immunoprecipitation of GFP-tagged full-length and truncated TrkB from 293T lysates; binding domain. The protocol:
Cell were washed by cold PBS for 3 times and were lysed in buffer containing 50 mM Tris-HCl (pH 8.0), 250 mM NaCl, 1% NP-40, 0.5% deoxycholate, 0.1% SDS, and protease inhibitors (4693132001, Roche) (Roche Diagnostics) for 20 min on ice. After centrifugation to remove insoluble material, the proteins in lysate incubated with target protein over night at 4° C. 20 μl Protein A beads (sc-2003, Santacruz) were added to the protein mixture. After these mixture incubated for 4-5 h at 4° C., we washed beads for 3 times with lysis buffer. Then the supernatant was removed and 20 μl loading buffer was added to the deposit beads. The beads coupled proteins were denatured and uncoupled by 95° C. heat for 10 min.
Five extracellular domain truncated TrkB constructs were designed as shown in FIG. 2A and transfected to 293T cell for expression respectively. The lysate were collected. Immunoprecipitation was used to test the antibodies that cannot bind to truncated TrkB conjugated with GFP (see FIG. 2B). […] The others such as TrkB-agoAb418 antibody may bind to D5 domain. Δ1 lacks D1 domain (represented by Cys 1), Δ2 lacks D1 and D2 (represented by LAM) domains, Δ3 lacks D1-D3 (represented by Cys 2) domains, Δ4 lacks D1-D4 (represented by Ig1) domains, and Δ5 lacks D1-D5 (represented by Ig2) domains. “TM” represents transmembrane domain, “C” represents control (blank, empty vector). FL represents full length gene (WT).

The target of another assay is T2, P75 (Homo sapiens (Human), UniProt P08138 29-250).
T2 construct: also called P75 neurotrophin receptor; P75NTR
T2 sequence: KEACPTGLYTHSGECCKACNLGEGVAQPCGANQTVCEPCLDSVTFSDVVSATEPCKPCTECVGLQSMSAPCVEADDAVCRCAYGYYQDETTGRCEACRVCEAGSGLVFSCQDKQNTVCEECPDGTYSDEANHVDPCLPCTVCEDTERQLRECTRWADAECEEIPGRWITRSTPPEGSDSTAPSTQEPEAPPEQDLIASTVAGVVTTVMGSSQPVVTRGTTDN
The assay is described as follows: ELISA on coated P75, antibody at 10 nM, 1 nM and 0.1 nM. As for the experimental part:
(§1) TrkB agonist antibodies can bind to TrkB specifically but not bind to TrkA, […], TrkC or P75 in ELISA assay. Data of exemplary antibodies TrkB-agoAb104, TrkB-agoAb202, TrkB-agoAb203, TrkB-agoAb303, TrkB-agoAb1104 and TrkB-agoAb2908 are shown in FIG. 1A-1F. 50 μL of […] protein was coated on each well of the plate, and 50 μL of 10 nM, 1 nM or 0.1 nM antibody was added to perform ELISA assay.

Another assay deals with T3, TrkA (Homo sapiens (Human), UniProt P04629 33-423).
T3 construct: also called Tyrosine Receptor A
T3 sequence (P04629 33-423 limits assumed): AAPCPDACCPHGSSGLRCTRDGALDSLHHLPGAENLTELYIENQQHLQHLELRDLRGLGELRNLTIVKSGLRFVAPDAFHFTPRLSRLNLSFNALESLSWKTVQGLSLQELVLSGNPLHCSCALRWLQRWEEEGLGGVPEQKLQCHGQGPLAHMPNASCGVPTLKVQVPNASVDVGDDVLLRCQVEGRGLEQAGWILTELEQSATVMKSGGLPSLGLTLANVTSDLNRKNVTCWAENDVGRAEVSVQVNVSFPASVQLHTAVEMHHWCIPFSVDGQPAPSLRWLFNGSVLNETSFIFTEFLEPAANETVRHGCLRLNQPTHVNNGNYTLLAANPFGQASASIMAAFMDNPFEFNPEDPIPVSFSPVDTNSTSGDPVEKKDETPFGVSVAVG
Put plainly: ELISA on coated TrkA, antibody at 10 nM, 1 nM and 0.1 nM. As for the experimental part: as §1

The target in assay [3] is T4, human TrkB on CHO cells (hTrkB-CHO cells) (human, UniProt Q16620 32-822). Put plainly: cell-based or functional assay.
T4 sequence (Q16620 32-822): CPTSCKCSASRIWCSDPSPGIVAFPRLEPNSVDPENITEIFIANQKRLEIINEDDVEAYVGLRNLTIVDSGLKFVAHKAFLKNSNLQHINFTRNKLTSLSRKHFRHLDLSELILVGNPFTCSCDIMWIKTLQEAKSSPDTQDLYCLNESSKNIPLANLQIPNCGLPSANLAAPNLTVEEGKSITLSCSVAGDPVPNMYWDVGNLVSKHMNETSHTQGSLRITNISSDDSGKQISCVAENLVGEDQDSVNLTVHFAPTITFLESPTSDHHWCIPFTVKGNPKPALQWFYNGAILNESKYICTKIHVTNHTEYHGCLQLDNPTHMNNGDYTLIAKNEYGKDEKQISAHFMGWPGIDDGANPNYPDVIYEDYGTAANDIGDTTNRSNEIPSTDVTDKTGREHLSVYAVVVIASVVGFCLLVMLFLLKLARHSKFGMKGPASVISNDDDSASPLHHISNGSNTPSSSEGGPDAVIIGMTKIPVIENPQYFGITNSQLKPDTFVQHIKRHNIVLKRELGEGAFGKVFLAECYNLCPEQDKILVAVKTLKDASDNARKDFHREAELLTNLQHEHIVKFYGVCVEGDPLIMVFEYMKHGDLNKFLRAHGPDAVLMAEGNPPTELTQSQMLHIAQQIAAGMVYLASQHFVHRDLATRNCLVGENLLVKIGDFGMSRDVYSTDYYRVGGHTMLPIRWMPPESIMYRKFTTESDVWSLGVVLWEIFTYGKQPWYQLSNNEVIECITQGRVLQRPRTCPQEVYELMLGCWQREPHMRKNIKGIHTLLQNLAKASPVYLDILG
Assay [4] deals with T4, human TrkB on CHO cells (hTrkB-CHO …). The assay is described as follows: cell-based or functional assay. The source holds these as a separate data set.
Assay [5] has as its target T5, human TrkB (recombinant protein coated in ELISA / immobilised in Biacore) (human, UniProt Q16620 30-430, limits assumed).
T5 construct: also called target protein; antigen
The assay is described as follows: Biacore T200 SPR, target protein on CM5 chip, antibody in 7 dilutions as fluid phase. The protocol:
Wash CM5 chip in PBS with sonication. Replace the buffer of candidate antibodies and the target protein with the same PBS. The target protein was diluted to 1 μg/μL as the solid phase and the candidate antibodies were serial diluted to 7 dilutions as the fluid phase. After obtaining the signal, Biacore Evaluation Software was used to create fitting curves. ch2<Rmax/10 indicates good confidence level.
Biacore was used to analyze the affinity of antigen-antibody interaction.
(In general: SPR reads the build-up and loss of mass on a sensor chip optically.)

Assay [6] deals with T4, human TrkB on CHO cells (hTrkB-CHO …). Put plainly: cell-based or functional assay. This is another data set of the same source.

The Kd is the free concentration of one partner at which half of the binding sites on the other are occupied at equilibrium, for simple one-to-one binding. The EC50 (read off the curve) is the concentration giving half of the maximal effect. A low value points to higher potency in that assay.

T1 sequence (Q16620 32-822): as above
T5 sequence (Q16620 30-430 limits assumed): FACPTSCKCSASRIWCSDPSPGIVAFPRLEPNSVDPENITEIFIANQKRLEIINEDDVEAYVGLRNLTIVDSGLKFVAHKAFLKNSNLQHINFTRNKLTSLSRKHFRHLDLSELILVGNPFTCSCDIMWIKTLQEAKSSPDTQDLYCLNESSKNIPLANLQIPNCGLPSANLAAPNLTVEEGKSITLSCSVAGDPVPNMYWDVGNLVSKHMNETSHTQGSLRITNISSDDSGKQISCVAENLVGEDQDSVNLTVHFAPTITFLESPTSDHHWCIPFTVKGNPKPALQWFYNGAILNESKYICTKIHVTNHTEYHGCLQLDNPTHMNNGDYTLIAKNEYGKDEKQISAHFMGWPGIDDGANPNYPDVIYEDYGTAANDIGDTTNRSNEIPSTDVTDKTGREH
human TrkB on CHO cells (hTrkB-CHO cells) (human), sequence (Q16620 32-822): as the sequence (Q16620 32-822) above

“brain-derived neurotrophic factor (BDNF) (from UniProt P23560 129-247) (ligand)” displayed an EC50 of TrkB Try515 phosphorylation, Alphalisa, hTrkB-CHO cells treated 30 min in assay [1] of 1.39 nM.

B1: TrkB-agoAb6916 (antibody, V domains shown)
VH: QVQLQQSGTELMKPGASVKISCKAAGYTISSYWVEWVKQRPGHGLEWIGEILPGGGSTNYNEKFKGKATFTADISSNTAYMQLSNLTSEDSAVYYCASSDYWFAYWGQGTLVTVSA
VL: QIVLTQSPAIMSASPGEKVTMTCSASSSINYTHWFQQKPGTSPKRWIYDTSKLASGVPVRFSGSGSGTSYSLTISSMEAEDAATYYCHQRSSYPWTFGGGTKLEIK
notes: Mouse monoclonal antibody
As for B1, in assay [2], the binding result was “binds”.

B2: TrkB-agoAb5702 (antibody, IgG1, V domains shown)
VH: DVQLVESGGGLVQPGGSRKLSCAASGFTFSSFGMHWVRQAPEKGLEWVAYITSGSNTIYYADTVKGRFTISRDNPKNTLFLQMTSLRSEDTALYYCARDGYFLDALDYWGQGTSVTVSS
VL: DVQITQSPSYLAASPGETITINCRASKSISKYLAWYQEKPGKTNKLLIYSGSTLQSGIPSRFSGSGSGTDFTLTISSLEPEDFAMYYCQQHNEFPLTFGAGTKLELK
Consider B2, for which, in assay [2], the binding result is listed as “binds”.

B3: TrkB-agoAbB901 (antibody, IgG2, V domains shown)
VH: EVKLVESGGGLVQPGGSLKLSCAASGFDFSRYWMSWVRQAPGKGLEWIGEINPDGSTINYTPSLKDKFIISRDNAKNTLYLQMSKVRSEDTALYYCARGNYYGSSLAWFAYWGQGTLVTVSA
VL: DIQMTQSPASQSASLGESVTITCLASQTIGTLLAWYQQKPGKSPQLLIYAATTLADGVPSRFRGSGSGTKFSFKISSLQAEDFVSYYCQQFYSTPYTFGGGTKLEIK
notes: also called TrkB-agoAb901
In the case of B3, in assay [2], the binding result was “binds”.

B4: TrkB-agoAb1104 (antibody, IgG1, V domains shown)
VH: QVQLQQSGAELARPGASVKLSCKASGYTFTRYWMQWVKQRPGQGLEWIGAIYPGDGDTRYTQKFKGKATLTADKSSSTAYMQLSSLASEDSAVYYCAGSGLGRAWFTYWGQGTLVTVSA
VL: DIQMTQSPASLSASVGETVTITCRSSENIYSYLAWYQQKQGKSPQLLVYNAKTLAEGVPSRFSGSGSGTQFSLKINSLQPEDFGSYYCQHHYGPPYTFGGGTKLEIK
With B4, the binding result is “no binding (tested: 10 nM)” with P75, “no binding (tested: 10 nM)” with TrkA and “binds” in assay [2].

B5: TrkB-agoAb2908 (antibody, IgG1, V domains shown)
VH: QVQLQQSGPELVKPGASVKISCKASGYTFSSSWMNWVKQRPGQGLEWIGRIYPGDGHTNYNGKFKGKATLTADKSSSTAYMQLTSLTSVDSGVYFCARSGYGYGFDCWGQGTTLTVSS
VL: NIVLTQSPASLAVSLGQRATISCRASESVDNYGNSLMHWYQQKPGQPPKLLIYLASNLESGVPARFSGSGSRTDFTLTIDPVEADDAATYYCQQNNEDPPWTFGGGTKLEIKR
Take B5: the binding result in the assay with P75 and with TrkA was “no binding (tested: 10 nM)” in each case.

B6: TrkB-agoAb203 (antibody, V domains shown)
VH: DVKLVESGGGLVKPGGSLKLSCAASGFTFSSYTMSWVRQTPEKRLEWVATISSGGDYTYFPDSVKGRFTMSRDNAKNALYLQMSSLKSEDTAMYYCTRESGRGDFDYWGQGTTLTVSS
VL: DVLMTQTPLSLPVSLGDQASISCRSSQNIVHSNGNTYLEWYLQKPGQSPNLLIYNVSNRFSGVPDRFSGSGSGTDFTLKISRVEAEDLGVYYCFQGSHFPWTFGGGTKLEIT
Turning to B6, the “EC50 of TrkB Try515 phosphorylation, Alphalisa, hTrkB-CHO cells treated 30 min” value in assay [3] was 2.84 nM. Besides, the “in vitro half life (T1/2) from the time course of TrkB phosphorylation, Alphalisa, cells treated at EC50” value in assay [4] is above 24 h. Also, in assay [5], the Kd turned out to be 0.0529 nM.

B7: TrkB-agoAb303 (antibody, V domains shown)
VH: DVKLVESGGGLVKPGGSLKLSCAASGFTFSSYTMSWVRQTPEKRLEWVATISSGGDYTYFPDSVKGRFTMSRDNAKNALYLQMSSLKSEDTAMYYCTRESGRGDFDYWGQGTTLTVSS
VL: DVLMTQTPLSLPVSLGDQASISCRSSQNIVHSNGNTYLEWYLQKPGQSPNLLIYNVSNRFSGVPDRFSGSGSGTDFTLKISRVEAEDLGVYYCFQGSHFPWTFGGGTKLEIT
notes: Mouse monoclonal antibody
As to B7, the “EC50 of TrkB Try515 phosphorylation, Alphalisa, hTrkB-CHO cells treated 30 min” value in assay [3] worked out at 1.33 nM. Moreover, the “in vitro half life (T1/2) from the time course of TrkB phosphorylation, Alphalisa, cells treated at EC50” value in assay [4] is above 24 h. The “EC50 (read off the curve)” value in assay [6] was around 1 nM. In addition, the binding result with P75 and with TrkA was “no binding (tested: 10 nM)” each time. Besides, the Kd in assay [5] was 4.02 nM.

For the origin of these results see patent publication US20210269531A1 (TSINGHUA UNIVERSITY, published 2021).
